According to the nanobody polyreactivity screen of Harvey et al. (2022):

Assay: yeast display, Sf9 membrane polyspecificity reagent, FACS + sequencing; frameworks hold sequencing errors
How it was run: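 Nanobodies from a synthetic yeast display library (Saccharomyces cerevisiae BJ5465), induced 36–48 hours with galactose, were stained 1 hour at 4 °C with 10% biotinylated, detergent-solubilized Sf9 membrane reagent, enriched on streptavidin microbeads, then FACS-sorted. Anti-HA (expression) and streptavidin (reagent binding) fluorescence set low and high (top ~1%) gates. Polyreactivity labels come from the gate of origin. Genes were colony-PCR amplified, MiSeq 2 × 250 sequenced and filtered by CDR length.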

Sequence	polyreactivity (PSR sort gate)
QVQLVESGGGLVQAGGSLRLSCAASGFTYFYYAMGSYRQAPGKERELVASISWSGGSTYYADSVKGRFTISRDNAKNTVYLQMNSLKPEDTAVYYCAADVPFGGDYWGQGTQVTVSS	low polyreactivity
QVQLVESGGGLVQAGGSLRLSCAASGFTYYWNAMGWYRQAPGKERELVAAINWRGTSTYYADSVKGRFTISRDNAKNTVYLQMNSLKPEDTAVYYCNTYGYVEYDWGQGTQVTVSS	high polyreactivity
QVQLVESGGGLVQAGGSLRLSCAASGFYLNAMGWYRQAPGKERELVATITSSATNTYYADSVKGRFTISRDNAKNTVYLQMNSLKPEDTAVYYCNARYTSHTHADGVYLYDYWGQGTQVTVSS	low polyreactivity
QVQLVESGGGLVQAGGSLRLSCAASGGIFAANAMGWYRQAPGTERELVAAITSVGSTYADSVKGRFTISRDNAKNTVYLQMNSLKPEDTAVSYCAADTESVIVWYEDDYWGQGTQVTVSS	low polyreactivity
QVQLVESGGGLVQAGGSLRLSCAASGGIFAIYAMGWYRQAPGKEREFVATISWRGGSTYYADSVKGRFTISRDNAKNTVYLQMNSLKPEDTAVYYCAAPHFSYSGGTHDYWGQGTQVTVSS	high polyreactivity
QVQLVESGGGLVQAGGSLRLSCAASGGIFAPYAMGWYRQAPGKERELVADITSDGGSTYYADSVKGRFTISRDNAKNTVYLQMNSLKPEDTAVYYCAAEQRYWWWGHPGDYWGQGTQVTVSS	low polyreactivity
QVQLVESGGGLVQAGGSLRLSCAASGGIFASNAMGWYRQAPGKERELVATITRGGSTNYADSVKGRFTISRDNAKNTVYLQLNSLKPEDTAVYYCAARFYSRAFWPAYYYWGQGTQVTVSS	high polyreactivity
QVQLVESGGGLVQAGGSLRLSCAASGGIFAYNAMGWYRQAPGKERELVATISSGVSTNYADSVKGRFTISRDNAKNTVYLPMNSLKPEDTAVYDCAAAIFITGYGSYGYWGQGTQVTVSS	low polyreactivity
QVQLVESGGGLVQAGGSLRLSCAASGGIFAYYGMGWYRQAPGKERELVAAIWIGGNTYYADSVKGRFTISRDNAKNTVYLQMNSLKPEDTAVYDCAAAGSAYYSTRKWDSYYYWGQGTQVTVSS	low polyreactivity
QVQLVESGGGLVQAGGSLRLSCAASGGIFAYYTMGLYTQDHGKERELVAAISTSSVNTYYADSVKGRFTISRDNAKHTVYLQMNSLKQEVNAVYYCAAEVYYGYDYCGQGTQVTVSS	low polyreactivity
QVQLVESGGGLVQAGGSLRLSCAASGGIFDNYAMGWYRQAPGKEREFVAVISSGGTTNYADSVKGRFTISRVNAKNTVYLQMNSLKPEDTAVYYCAADYDYRQGYDSVHLDYWGQGTQVTVSS	low polyreactivity
QVQLVESGGGLVQAGGSLRLSCAASGGIFDRYAMGWYRPAPGKERELVAGITWSGGRTYYADSVKGRFTISRDNAKNTVYLQMNSLKPEDTAVYYCAASLYTWTYQPVYYRDGYWGQGTQVTVSS	low polyreactivity
QVQLVESGGGLVQAGGSLRLSCAASGGIFDRYAMGWYRQAPGKERELVAAITSGGSTNYADSVKGRFTISRDNAKNTVYLQMNSLKPEDNAVYYCAAVESSYEAWYTYYYWGQGTQVTVSS	low polyreactivity
QVQLVESGGGLVQAGGSLRLSCAASGGIFESYAMGWYRQAPGKERELVASISSGGSTYYADSVKGRFTISRDNAKNTVYLQMNSLKPEDTAVYYCEYYYWGQGTQVTVSS	low polyreactivity
QVQLVESGGGLVQAGGSLRLSCAASGGIFFYNAMGWYRQAPGKERELVAAISTGGGRTYYADSVKGRFTISRDNAKNTVYLQMNSLKPEDTAVYYCAKDKQDYEYWGQGTQVTVSS	low polyreactivity
QVQLVESGGGLVQAGGSLRLSCAASGGIFGFNAMGWYRQAPGKERELVADISDGVRTNYADSVKGRFTISRDNAKNTVFLQMNSLKPEDTAVYYCATDGLFYVDGSWTLGYWGQGTQVTVSS	low polyreactivity

Sequence	polyreactivity (PSR sort gate)
QVQLVESGGGLVQAGGSLRLSCAASGGIFGHNAMGWYRQAPGKERELVAAISYTGGSTYYADSVKGRFTISRDNAKNTVYLQMNSLKPEDTAVYYCNAVQRRFRYPFDYWGQGTQVTVSS	low polyreactivity
QVQLVESGGGLVQAGGSLRLSCAASGGIFGSYAMGWYRQAPGKERELVAAISWTGGSTYYADSVKGRFTISRDTAKNTVYLQMNSLKREDTAVYYCNADTYRRAQLRFNSWGQGTQVTVSS	low polyreactivity
QVQLVESGGGLVQAGGSLRLSCAASGGIFGTNDMGWYRQAPGKERELVAAITSDSGSTYYADSVKGRFTISRDNAKNTVYLQMNSLKPEDTAVYYCAAEDGPWFYRYGYWGQGTQVTVSS	low polyreactivity
QVQLVESGGGLVQAGGSLRLSCAASGGIFGYYAMGWYRQAPGKERELVAAITLSGGRTYYADSVKGRFTISRDNAKNTVYLQMNSLKPEDTAVYYCAAKGTRRGKERNYWGQGTQVTVSS	high polyreactivity
QVQLVESGGGLVQAGGSLRLSCAASGGIFGYYVMGWYRQAPGKERELVAAITSGGGTNYADSVKGRFTISRDNAKNTVYLQMNSLKPEDTAVYYCAAVYVRHRFGRFGYWGQGTQVTVSS	low polyreactivity
QVQLVESGGGLVQAGGSLRLSCAASGGIFIGYAMGWYRQAPGKERELVAAISYSGGSTYYADSVKGRFTISRDNAKNTVYFQMNSLKPEDTALYYCAAQVERKYRWFNSWGQGTQVTVSS	high polyreactivity
QVQLVESGGGLVQAGGSLRLSCAASGGIFKSYAMGWYRQAPGKERELVAAISASGGRTYYADSVKGRFTISRDNAKNTVYLQMNSLKPEDTAVYYCAAKVGYTTALNYWGQGTQVTVSS	high polyreactivity
QVQLVESGGGLVQAGGSLRLSCAASGGIFKYNAMGWYRQSPGKERELVAAIDTSGGSTYYADSVKGRFTISRDNAKNTVYLQMNSLKPEDTAVYYCAAELGLAQYYYWGQGTQVTVSS	low polyreactivity
QVQLVESGGGLVQAGGSLRLSCAASGGIFLVNDMGWYRQAPGKERELVAAITSGGGTYYADSVKGRFTISRDNAKNTVYLQMNSLKPEDTAVYYCARDTYRQIVSNESYGYWGQGTQVTVSS	low polyreactivity
QVQLVESGGGLVQAGGSLRLSCAASGGIFNSNAMGWYRQAPGKEREFVAAITRSGTSTYYADSVKGRFTISRDNAKNSVYLQMNSLKPEDTAVYYWAADYRYRRYRGHVSNLYYWGQGTQVTVSS	low polyreactivity
QVQLVESGGGLVQAGGSLRLSCAASGGIFNTYAMGWYRQAPGKEREFVAAISRRGGGTYYADSVKGRFTISRDNAKNTVYLQMNSLKPEDTAVYYCNADDKRGSRGYGSDHWGQGTQVTVSS	high polyreactivity
QVQLVESGGGLVQAGGSLRLSCAASGGIFPGNAMGWYRQAPGKERELVATISYSGGSTYYADSVKGRFTISRDYAKNTVYLQMNSLKPEDTAVYYCAARGYKPTRSRRTEYGYWGQGTQVTVSS	high polyreactivity
QVQLVESGGGLVQAGGSLRLSCAASGGIFPLYTMGWYRQATGKERELVASNTGSRASTYYADSVKGRFTISRDKAKNTVYLPMNSLNPEDTGVYDCKADVYVYSVTSHYPSYRLDYWGQGTQVTVAS	high polyreactivity
QVQLVESGGGLVQAGGSLRLSCAASGGIFPVNAMGWYRQAPGKERELVAAITWRGGRTYYADSVKGRFTISRDNSKNTVYLQMNSLKPEDTAVYYCAAYKGSSKYDYWGQGTQVTVSS	high polyreactivity
QVQLVESGGGLVQAGGSLRLSCAASGGIFPYYAMGWYRQAPGKERELVADISSGGSTYYADSVKGRFTISRDNAKNTVYFQMNSLKPEDTAVYYCAADAGQYFTYSGDDNHDYWGQGTQVTVSS	low polyreactivity
QVQLVESGGGLVQAGGSLRLSCAASGGIFPYYVMGWYRQAPGNEMELVAAINSGGTTYYADSVKGRFTISRDNAKNTVYLQMNILKPEDTAVYYCAAYYAGFGYNYWGQGTQVTVSS	low polyreactivity
